# Ends that are not written are not given here.
# B1: VSL12 peptide (peptide)
# peptide: VSLARRPLPPLP
# modifications: also: biotin (site not given here)
# notes: Biotinylated for immobilisation in SPR; source: synthetic peptide (University of Pittsburgh Peptide Synthesis Core)
# What was measured:
# c-Src SH3 domain [1] = target: T1, c-Src SH3 domain (human, UniProt P12931-1 81-142); test: SPR; Biacore 3000; biotinylated VSL12 immobilised to 80 RU on a streptavidin chip; domain proteins flowed in duplicate at 25°C in HBS-EP (10 mM HEPES pH 7.4, 150 mM NaCl, 3 mM EDTA, 0.05% P20); 180 s association, 300 s dissociation; double referenced; kinetic fit, 1:1 Langmuir model; conditions: both partners purified
# T1 construct: human c-Src, SH3 domain, residues 81-142; Cloned into pET21a through NdeI and XhoI; source: E. coli Rosetta 2(DE3)pLysS, purified (anion exchange, IMAC, SEC)
# Fyn-YEEI = Fyn-YEEI (human, phosphotyrosine in the C-terminal tail (pTyr-Glu-Glu-Ile-Pro)); test: cell-based or functional assay
# Lyn-YEEI = Lyn-YEEI (human, phosphotyrosine in the C-terminal tail (pTyr-Glu-Glu-Ile-Pro)); test: cell-based or functional assay
# c-Src SH3 domain [2] = target: T1, c-Src SH3 domain; test: SPR; same runs as a1 (biotinylated VSL12 on a streptavidin chip, 25°C, HBS-EP); equilibrium responses against analyte concentration, steady state model; conditions: both partners purified
# VSL12 peptide [3] = target: B1; test: SPR; Biacore 3000; biotinylated VSL12 immobilised to 80 RU on a streptavidin chip; domain proteins flowed in duplicate at 25°C in HBS-EP (10 mM HEPES pH 7.4, 150 mM NaCl, 3 mM EDTA, 0.05% P20); 180 s association, 300 s dissociation; double referenced; kinetic fit, 1:1 Langmuir model; conditions: both partners purified
# VSL12 peptide [4] = target: B1; test: SPR; same runs as a1 (biotinylated VSL12 on a streptavidin chip, 25°C, HBS-EP); equilibrium responses against analyte concentration, steady state model; conditions: both partners purified
Kd (c-Src SH3 domain [1]) [nM],"Kact: VSL12 concentration at half-maximal activation of kinase activity (ADP Quest kinetic kinase assay, VSL12 0.1 to 300 µM, basal rate subtracted) (Fyn-YEEI) [µM]","Kact: VSL12 concentration at half-maximal activation of kinase activity (ADP Quest kinetic kinase assay, VSL12 0.1 to 300 µM, basal rate subtracted) (Lyn-YEEI) [µM]",Kd (c-Src SH3 domain [2]) [nM],Kd (VSL12 peptide [3]) [nM],koff (VSL12 peptide [3]) [s⁻¹],kon (VSL12 peptide [3]) [M⁻¹ s⁻¹],Kd (VSL12 peptide [4]) [nM],Binder
3420,24.9,4.03,4000,–,–,–,–,B1
–,–,–,–,647,0.137,212000,562,Lyn SH3 domain (domain or fragment) EQGDIVVALYPYDGIHPDDLSFKKGEKMKVLEEHGEWWKAKSLLTKKEGFIPSNYVAKLNT

# Reference: publication PMC4140816 (PLoS ONE, 2014)
